Here are results for five molecules from patent US12679878B2, “CRF2 receptor agonists and their use in therapy” (SANOFI, priority 2020, dated 2026).

Starred links: 1 amine or outer side, 2 acyl side, 3 side chain; linkers in the order of their positions; H or OH if unused. Non-standard residues stand in square brackets, D forms with d. Groups on a side chain read outwards from the residue. No end group written: not given here. *: point of attachment. C16 diacid = O=C(O)CCCCCCCCCCCCCCC(=O)*; γGlu = O=C(O)[C@H](CCC(=O)[*:2])N[*:1]; Palmitoyl = CCCCCCCCCCCCCCCC(=O)*; Aib = CC(C)(N)C(=O)O

Assay in all cases: cell-based or functional assay
Assay [1] has as its target T1, CRF1R receptor (anti-target) (UniProt P34998 24-415, limits assumed).
T1 sequence (looked up): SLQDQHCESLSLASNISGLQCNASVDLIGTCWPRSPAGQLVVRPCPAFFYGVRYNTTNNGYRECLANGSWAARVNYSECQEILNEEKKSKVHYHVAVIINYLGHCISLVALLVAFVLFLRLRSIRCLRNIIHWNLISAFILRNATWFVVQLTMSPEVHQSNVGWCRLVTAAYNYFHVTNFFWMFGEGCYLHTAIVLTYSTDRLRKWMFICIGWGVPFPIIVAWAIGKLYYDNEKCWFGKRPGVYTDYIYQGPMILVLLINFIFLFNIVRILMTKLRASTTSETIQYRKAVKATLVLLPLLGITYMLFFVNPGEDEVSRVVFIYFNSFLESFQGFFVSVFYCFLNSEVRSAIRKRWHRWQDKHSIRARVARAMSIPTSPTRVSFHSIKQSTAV

For assay [2], the target named is human corticotropin-releasing factor 2α (CRF2α receptor) (human), Q13324.
Sequence of human corticotropin-releasing factor 2α (CRF2α receptor) (human), Q13324 (Q13324 20-411): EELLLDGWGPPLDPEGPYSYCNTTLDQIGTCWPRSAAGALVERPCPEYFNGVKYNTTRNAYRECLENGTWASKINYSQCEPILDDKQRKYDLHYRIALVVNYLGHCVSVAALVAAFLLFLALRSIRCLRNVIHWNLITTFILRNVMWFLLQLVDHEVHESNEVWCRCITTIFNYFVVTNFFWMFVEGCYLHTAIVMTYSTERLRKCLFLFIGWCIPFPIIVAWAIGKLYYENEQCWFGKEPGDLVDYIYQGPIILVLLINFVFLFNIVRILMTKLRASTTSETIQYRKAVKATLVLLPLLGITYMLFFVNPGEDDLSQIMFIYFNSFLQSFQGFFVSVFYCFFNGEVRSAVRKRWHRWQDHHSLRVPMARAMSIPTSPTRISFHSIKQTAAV
In assay [3] the target is human corticotropin-releasing factor 2α receptor (CRF2α receptor) (human), Q13324.
Sequence of human corticotropin-releasing factor 2α receptor (CRF2α receptor) (human), Q13324 (Q13324 20-411): as above

B1: peptide of SEQ ID NO: 208 (peptide)
peptide: IVLSLD[dV]PIKLK([γGlu-Palmitoyl])QILLKQERQK[Aib]QRQQAEKNKQILAQV-NH2
modifications: N-terminus assumed
SMILES: CCCCCCCCCCCCCCCC(=O)N[C@@H](CCC(=O)NCCCC[C@H](NC(=O)[C@H](CC(C)C)NC(=O)[C@H](CCCCN)NC(=O)[C@@H](NC(=O)[C@@H]1CCCN1C(=O)[C@H](NC(=O)[C@H](CC(=O)O)NC(=O)[C@H](CC(C)C)NC(=O)[C@H](CO)NC(=O)[C@H](CC(C)C)NC(=O)[C@@H](NC(=O)[C@@H](N)[C@@H](C)CC)C(C)C)C(C)C)[C@@H](C)CC)C(=O)N[C@@H](CCC(N)=O)C(=O)N[C@H](C(=O)N[C@@H](CC(C)C)C(=O)N[C@@H](CC(C)C)C(=O)N[C@@H](CCCCN)C(=O)N[C@@H](CCC(N)=O)C(=O)N[C@@H](CCC(=O)O)C(=O)N[C@@H](CCCNC(=N)N)C(=O)N[C@@H](CCC(N)=O)C(=O)N[C@@H](CCCCN)C(=O)NC(C)(C)C(=O)N[C@@H](CCC(N)=O)C(=O)N[C@@H](CCCNC(=N)N)C(=O)N[C@@H](CCC(N)=O)C(=O)N[C@@H](CCC(N)=O)C(=O)N[C@@H](C)C(=O)N[C@@H](CCC(=O)O)C(=O)N[C@@H](CCCCN)C(=O)N[C@@H](CC(N)=O)C(=O)N[C@@H](CCCCN)C(=O)N[C@@H](CCC(N)=O)C(=O)N[C@H](C(=O)N[C@@H](CC(C)C)C(=O)N[C@@H](C)C(=O)N[C@@H](CCC(N)=O)C(=O)N[C@H](C(N)=O)C(C)C)[C@@H](C)CC)[C@@H](C)CC)C(=O)O
Regarding B1, in assay [1], the “CRF1/CRF2 ratio (of EC50)” value was determined as 2 and the “CRF1 EC50 (cAMP, HTRF)” value turned out to be 1430 pM. Besides, in assay [2], the EC50 [nM], 0% HSA (cAMP, HTRF) amounted to 0.9 nM. Also, the CRF2 EC50 (cAMP, HTRF) in assay [3] was determined as 900 pM.

B2: peptide of SEQ ID NO: 204 (peptide)
peptide: IVLSLD[dV]PIKLK([γGlu-Palmitoyl])QILLKQERQK[Aib]QREQAEKNKQILAQV-NH2
modifications: N-terminus assumed
SMILES: CCCCCCCCCCCCCCCC(=O)N[C@@H](CCC(=O)NCCCC[C@H](NC(=O)[C@H](CC(C)C)NC(=O)[C@H](CCCCN)NC(=O)[C@@H](NC(=O)[C@@H]1CCCN1C(=O)[C@H](NC(=O)[C@H](CC(=O)O)NC(=O)[C@H](CC(C)C)NC(=O)[C@H](CO)NC(=O)[C@H](CC(C)C)NC(=O)[C@@H](NC(=O)[C@@H](N)[C@@H](C)CC)C(C)C)C(C)C)[C@@H](C)CC)C(=O)N[C@@H](CCC(N)=O)C(=O)N[C@H](C(=O)N[C@@H](CC(C)C)C(=O)N[C@@H](CC(C)C)C(=O)N[C@@H](CCCCN)C(=O)N[C@@H](CCC(N)=O)C(=O)N[C@@H](CCC(=O)O)C(=O)N[C@@H](CCCNC(=N)N)C(=O)N[C@@H](CCC(N)=O)C(=O)N[C@@H](CCCCN)C(=O)NC(C)(C)C(=O)N[C@@H](CCC(N)=O)C(=O)N[C@@H](CCCNC(=N)N)C(=O)N[C@@H](CCC(=O)O)C(=O)N[C@@H](CCC(N)=O)C(=O)N[C@@H](C)C(=O)N[C@@H](CCC(=O)O)C(=O)N[C@@H](CCCCN)C(=O)N[C@@H](CC(N)=O)C(=O)N[C@@H](CCCCN)C(=O)N[C@@H](CCC(N)=O)C(=O)N[C@H](C(=O)N[C@@H](CC(C)C)C(=O)N[C@@H](C)C(=O)N[C@@H](CCC(N)=O)C(=O)N[C@H](C(N)=O)C(C)C)[C@@H](C)CC)[C@@H](C)CC)C(=O)O
B2: in assay [1], the “CRF1/CRF2 ratio (of EC50)” value was 3 and the “CRF1 EC50 (cAMP, HTRF)” value amounted to 440 pM. Also, the EC50 [nM], 0% HSA (cAMP, HTRF) in assay [2] was determined as 0.14 nM. Further, in assay [3], the CRF2 EC50 (cAMP, HTRF) is 140 pM.

B3: peptide of SEQ ID NO: 207 (peptide)
peptide: IVLSLD[dV]PIGLK([γGlu-Palmitoyl])QILLKQERQKK[Aib]REQAETNKRILERV-NH2
modifications: N-terminus assumed
SMILES: CCCCCCCCCCCCCCCC(=O)N[C@@H](CCC(=O)NCCCC[C@H](NC(=O)[C@H](CC(C)C)NC(=O)CNC(=O)[C@@H](NC(=O)[C@@H]1CCCN1C(=O)[C@H](NC(=O)[C@H](CC(=O)O)NC(=O)[C@H](CC(C)C)NC(=O)[C@H](CO)NC(=O)[C@H](CC(C)C)NC(=O)[C@@H](NC(=O)[C@@H](N)[C@@H](C)CC)C(C)C)C(C)C)[C@@H](C)CC)C(=O)N[C@@H](CCC(N)=O)C(=O)N[C@H](C(=O)N[C@@H](CC(C)C)C(=O)N[C@@H](CC(C)C)C(=O)N[C@@H](CCCCN)C(=O)N[C@@H](CCC(N)=O)C(=O)N[C@@H](CCC(=O)O)C(=O)N[C@@H](CCCNC(=N)N)C(=O)N[C@@H](CCC(N)=O)C(=O)N[C@@H](CCCCN)C(=O)N[C@@H](CCCCN)C(=O)NC(C)(C)C(=O)N[C@@H](CCCNC(=N)N)C(=O)N[C@@H](CCC(=O)O)C(=O)N[C@@H](CCC(N)=O)C(=O)N[C@@H](C)C(=O)N[C@@H](CCC(=O)O)C(=O)N[C@H](C(=O)N[C@@H](CC(N)=O)C(=O)N[C@@H](CCCCN)C(=O)N[C@@H](CCCNC(=N)N)C(=O)N[C@H](C(=O)N[C@@H](CC(C)C)C(=O)N[C@@H](CCC(=O)O)C(=O)N[C@@H](CCCNC(=N)N)C(=O)N[C@H](C(N)=O)C(C)C)[C@@H](C)CC)[C@@H](C)O)[C@@H](C)CC)C(=O)O
Take B3: in assay [1], the “CRF1/CRF2 ratio (of EC50)” value came out at 6 and the “CRF1 EC50 (cAMP, HTRF)” value turned out to be 4180 pM. In assay [2], this molecule returned an EC50 [nM], 0% HSA (cAMP, HTRF) of 0.68 nM. The molecule further gave a CRF2 EC50 (cAMP, HTRF) in assay [3] of 680 pM.

B4: peptide of SEQ ID NO: 192 (peptide)
peptide: IVLSLD[dV]PIKLK([γGlu-C16 diacid])QILLKQERQKKQRQQAEKNKQILAQV-NH2
modifications: N-terminus assumed
SMILES: CC[C@H](C)[C@H](N)C(=O)N[C@H](C(=O)N[C@@H](CC(C)C)C(=O)N[C@@H](CO)C(=O)N[C@@H](CC(C)C)C(=O)N[C@@H](CC(=O)O)C(=O)N[C@@H](C(=O)N1CCC[C@H]1C(=O)N[C@H](C(=O)N[C@@H](CCCCN)C(=O)N[C@@H](CC(C)C)C(=O)N[C@@H](CCCCNC(=O)CC[C@H](NC(=O)CCCCCCCCCCCCCCC(=O)O)C(=O)O)C(=O)N[C@@H](CCC(N)=O)C(=O)N[C@H](C(=O)N[C@@H](CC(C)C)C(=O)N[C@@H](CC(C)C)C(=O)N[C@@H](CCCCN)C(=O)N[C@@H](CCC(N)=O)C(=O)N[C@@H](CCC(=O)O)C(=O)N[C@@H](CCCNC(=N)N)C(=O)N[C@@H](CCC(N)=O)C(=O)N[C@@H](CCCCN)C(=O)N[C@@H](CCCCN)C(=O)N[C@@H](CCC(N)=O)C(=O)N[C@@H](CCCNC(=N)N)C(=O)N[C@@H](CCC(N)=O)C(=O)N[C@@H](CCC(N)=O)C(=O)N[C@@H](C)C(=O)N[C@@H](CCC(=O)O)C(=O)N[C@@H](CCCCN)C(=O)N[C@@H](CC(N)=O)C(=O)N[C@@H](CCCCN)C(=O)N[C@@H](CCC(N)=O)C(=O)N[C@H](C(=O)N[C@@H](CC(C)C)C(=O)N[C@@H](C)C(=O)N[C@@H](CCC(N)=O)C(=O)N[C@H](C(N)=O)C(C)C)[C@@H](C)CC)[C@@H](C)CC)[C@@H](C)CC)C(C)C)C(C)C
On to B4, for which, in assay [1], the “CRF1/CRF2 ratio (of EC50)” value came out at 68 and the “CRF1 EC50 (cAMP, HTRF)” value came to 56600 pM. This molecule also displayed an EC50 [nM], 0% HSA (cAMP, HTRF) in assay [2] of 0.83 nM. Besides, the CRF2 EC50 (cAMP, HTRF) in assay [3] was determined as 830 pM.

B5: peptide of SEQ ID NO: 188 (peptide)
peptide: IVLSLD[dV]PIKLK([γGlu-C16 diacid])QILLKQERQK[Aib]QRQQAEKNKQILAQV-NH2
modifications: N-terminus assumed
SMILES: CC[C@H](C)[C@H](N)C(=O)N[C@H](C(=O)N[C@@H](CC(C)C)C(=O)N[C@@H](CO)C(=O)N[C@@H](CC(C)C)C(=O)N[C@@H](CC(=O)O)C(=O)N[C@@H](C(=O)N1CCC[C@H]1C(=O)N[C@H](C(=O)N[C@@H](CCCCN)C(=O)N[C@@H](CC(C)C)C(=O)N[C@@H](CCCCNC(=O)CC[C@H](NC(=O)CCCCCCCCCCCCCCC(=O)O)C(=O)O)C(=O)N[C@@H](CCC(N)=O)C(=O)N[C@H](C(=O)N[C@@H](CC(C)C)C(=O)N[C@@H](CC(C)C)C(=O)N[C@@H](CCCCN)C(=O)N[C@@H](CCC(N)=O)C(=O)N[C@@H](CCC(=O)O)C(=O)N[C@@H](CCCNC(=N)N)C(=O)N[C@@H](CCC(N)=O)C(=O)N[C@@H](CCCCN)C(=O)NC(C)(C)C(=O)N[C@@H](CCC(N)=O)C(=O)N[C@@H](CCCNC(=N)N)C(=O)N[C@@H](CCC(N)=O)C(=O)N[C@@H](CCC(N)=O)C(=O)N[C@@H](C)C(=O)N[C@@H](CCC(=O)O)C(=O)N[C@@H](CCCCN)C(=O)N[C@@H](CC(N)=O)C(=O)N[C@@H](CCCCN)C(=O)N[C@@H](CCC(N)=O)C(=O)N[C@H](C(=O)N[C@@H](CC(C)C)C(=O)N[C@@H](C)C(=O)N[C@@H](CCC(N)=O)C(=O)N[C@H](C(N)=O)C(C)C)[C@@H](C)CC)[C@@H](C)CC)[C@@H](C)CC)C(C)C)C(C)C
As for B5, in assay [1], the “CRF1/CRF2 ratio (of EC50)” value was 134 and the “CRF1 EC50 (cAMP, HTRF)” value amounted to 69100 pM. For the same molecule, the EC50 [nM], 0% HSA (cAMP, HTRF) in assay [2] turned out to be 0.46 nM. For the same molecule, the CRF2 EC50 (cAMP, HTRF) in assay [3] was determined as 460 pM.
